For the assay, the target named is GFP-tagged Tks5 (GFP-Tks5), in 293T cells. In words: coimmunoprecipitation (IP FLAG, immunoblot quantification). Particulars: n = 4 experiments, parent: est. 100, read off a plot. A general note: A western blot detects proteins with antibodies after separation by electrophoresis.
On to “FLAG-MAP1B-LC1 (wild type) (from UniProt P46821) K60A; P61A”, for which the percent of parent worked out at 78 % WT.

In the case of “FLAG-MAP1B-LC1 (wild type) (from UniProt P46821) P66A; K67A; P68A”, the percent of parent was determined as 70 % WT. Regarding “FLAG-MAP1B-LC1 (wild type) (from UniProt P46821) P145A; P146A”, the percent of parent came to 130 % WT. With “FLAG-MAP1B-LC1 (wild type) (from UniProt P46821) K95A; P96A”, the percent of parent came to 110 % WT. Take “FLAG-MAP1B-LC1 (wild type) (from UniProt P46821) K41A; P42A”: the percent of parent was 120 % WT. Consider “FLAG-MAP1B-LC1 (wild type) (from UniProt P46821) P6A; R7A”, for which the percent of parent is 120 % WT.

The values are drawn from article PMC10866687.
